# Measurements taken from patent US20180002699.
# B1: recombinant full-length SMYD5 (SET and MYND domain-containing protein 5) (protein)
# chain: MAASMCDVFSFCVGVAGRARVSVEVRFVSSAKGKGLFATQLIRKGETIFVERPLVAAQFLWNALYRYRACDHCLRALEKAEENAQRLTGKPGQVLPHPELCTVRKDLHQNCPHCQVMYCSAECRLAATEQYHQVLCPGPSQDDPLHPLNKLQEAWRSIHYPPETASIMLMARMVATVKQAKDKDRWIRLFSQFCNKTANEEEEIVHKLLGDKFKGQLELLRRLFTEALYEEAVSQWFTPDGFRSLFALVGTNGQGIGTSSLSQWVHACDTLELKPQDREQLDAFIDQLYKDIEAATGEFLNCEGSGLFVLQSCCNHSCVPNAETSFPENNFLLHVTALEDIKPGEEICISYLDCCQRERSRHSRHKILRENYLFVCSCPKCLAEADEPNVTSEEEEEEEEEEEGEPEDAELGDEMTDV
# Key:
# [1] = molecular target: cyclin T1 (P-TEFb component), O60563
# Chain of cyclin T1 (P-TEFb component), O60563 (O60563 whole entry): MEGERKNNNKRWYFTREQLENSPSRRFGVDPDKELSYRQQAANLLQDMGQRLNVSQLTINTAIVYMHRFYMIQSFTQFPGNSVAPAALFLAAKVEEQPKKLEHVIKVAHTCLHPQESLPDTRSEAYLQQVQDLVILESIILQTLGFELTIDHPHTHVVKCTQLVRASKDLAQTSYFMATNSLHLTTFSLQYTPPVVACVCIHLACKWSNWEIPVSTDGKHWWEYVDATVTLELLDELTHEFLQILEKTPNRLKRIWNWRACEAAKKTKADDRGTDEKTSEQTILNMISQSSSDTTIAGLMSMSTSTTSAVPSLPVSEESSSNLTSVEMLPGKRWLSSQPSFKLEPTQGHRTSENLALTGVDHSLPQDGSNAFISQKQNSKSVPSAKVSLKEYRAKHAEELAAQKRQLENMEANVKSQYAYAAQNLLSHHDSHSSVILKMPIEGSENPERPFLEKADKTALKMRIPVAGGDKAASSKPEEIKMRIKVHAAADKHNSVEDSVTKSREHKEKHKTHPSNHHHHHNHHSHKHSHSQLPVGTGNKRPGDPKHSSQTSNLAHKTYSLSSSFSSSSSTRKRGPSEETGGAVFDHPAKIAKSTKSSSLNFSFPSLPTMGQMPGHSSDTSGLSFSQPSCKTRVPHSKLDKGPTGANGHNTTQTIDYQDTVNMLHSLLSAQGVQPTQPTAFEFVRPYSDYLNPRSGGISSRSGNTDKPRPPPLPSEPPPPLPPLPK
# [2] = molecular target: Sp1, P08047
# Chain of Sp1, P08047 (P08047 whole entry): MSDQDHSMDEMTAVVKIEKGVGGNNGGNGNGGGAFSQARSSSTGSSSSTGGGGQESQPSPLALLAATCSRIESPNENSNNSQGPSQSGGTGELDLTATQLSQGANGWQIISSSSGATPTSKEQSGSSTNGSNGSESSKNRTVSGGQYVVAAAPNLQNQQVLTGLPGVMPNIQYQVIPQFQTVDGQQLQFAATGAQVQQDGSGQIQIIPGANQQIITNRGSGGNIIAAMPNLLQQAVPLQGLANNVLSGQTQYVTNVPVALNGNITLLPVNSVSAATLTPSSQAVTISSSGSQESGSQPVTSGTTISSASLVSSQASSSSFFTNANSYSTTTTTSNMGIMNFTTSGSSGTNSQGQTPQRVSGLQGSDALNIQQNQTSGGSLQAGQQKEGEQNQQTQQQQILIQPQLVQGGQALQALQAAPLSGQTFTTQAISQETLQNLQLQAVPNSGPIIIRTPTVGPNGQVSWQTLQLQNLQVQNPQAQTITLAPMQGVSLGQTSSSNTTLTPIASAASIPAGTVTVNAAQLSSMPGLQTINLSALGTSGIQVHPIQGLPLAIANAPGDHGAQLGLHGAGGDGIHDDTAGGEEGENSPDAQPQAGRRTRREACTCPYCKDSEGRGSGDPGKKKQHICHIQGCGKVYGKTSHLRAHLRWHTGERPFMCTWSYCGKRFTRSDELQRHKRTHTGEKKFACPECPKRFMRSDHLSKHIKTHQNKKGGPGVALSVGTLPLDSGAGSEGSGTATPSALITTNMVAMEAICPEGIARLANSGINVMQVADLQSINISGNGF
# [3] = molecular target: histone H1 (purified human histones isolated from HEK293T cells), P07305
# Chain of histone H1 (purified human histones isolated from HEK293T cells), P07305 (P07305 whole entry, looked up, the tested form may be a part): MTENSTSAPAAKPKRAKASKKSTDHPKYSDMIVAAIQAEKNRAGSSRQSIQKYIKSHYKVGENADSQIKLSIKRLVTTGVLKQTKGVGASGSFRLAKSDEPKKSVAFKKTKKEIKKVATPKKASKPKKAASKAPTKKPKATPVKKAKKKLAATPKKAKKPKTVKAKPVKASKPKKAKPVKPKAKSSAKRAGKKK
# [4] = molecular target: T1, full-length synthetic Tat protein (aa 1-72)
# T1 chain: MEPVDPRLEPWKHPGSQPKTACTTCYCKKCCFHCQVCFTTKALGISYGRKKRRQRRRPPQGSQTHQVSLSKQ
# [5] = molecular target: histone H3 (histones isolated from HEK293T cells)
# [6] = molecular target: CDK9 (P-TEFb component), P50750
# Chain of CDK9 (P-TEFb component), P50750 (P50750 whole entry): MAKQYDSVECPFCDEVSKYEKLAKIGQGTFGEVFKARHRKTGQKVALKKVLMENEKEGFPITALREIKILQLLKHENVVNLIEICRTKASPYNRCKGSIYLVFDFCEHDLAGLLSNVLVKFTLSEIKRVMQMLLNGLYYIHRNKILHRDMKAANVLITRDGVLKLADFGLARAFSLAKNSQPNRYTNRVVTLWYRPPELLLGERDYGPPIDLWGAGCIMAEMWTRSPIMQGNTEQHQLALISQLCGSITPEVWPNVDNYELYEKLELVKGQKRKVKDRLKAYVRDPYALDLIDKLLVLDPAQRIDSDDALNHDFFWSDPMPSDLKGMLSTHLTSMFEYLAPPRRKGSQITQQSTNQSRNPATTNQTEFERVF
# [7] = molecular target: NF-kB p65 (RelA), Q04206
# Chain of NF-kB p65 (RelA), Q04206 (Q04206 whole entry): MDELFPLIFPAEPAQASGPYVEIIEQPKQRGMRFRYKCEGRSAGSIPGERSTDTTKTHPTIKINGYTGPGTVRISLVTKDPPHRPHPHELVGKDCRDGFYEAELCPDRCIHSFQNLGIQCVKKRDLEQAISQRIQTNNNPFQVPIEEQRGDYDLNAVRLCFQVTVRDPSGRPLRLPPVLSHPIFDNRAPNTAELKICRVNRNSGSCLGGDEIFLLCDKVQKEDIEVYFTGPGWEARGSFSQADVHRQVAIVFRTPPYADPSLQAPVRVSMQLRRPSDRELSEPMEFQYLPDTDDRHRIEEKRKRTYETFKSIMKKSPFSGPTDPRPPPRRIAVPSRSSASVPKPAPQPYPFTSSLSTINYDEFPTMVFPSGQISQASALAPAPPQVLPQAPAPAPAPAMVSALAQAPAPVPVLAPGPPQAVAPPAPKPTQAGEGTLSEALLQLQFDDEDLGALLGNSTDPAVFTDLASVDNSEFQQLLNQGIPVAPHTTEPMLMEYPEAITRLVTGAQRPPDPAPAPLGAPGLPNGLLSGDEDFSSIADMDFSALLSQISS
protein,measurement,setting,value
B1,"in vitro methylation (3H-SAM, autoradiography)",[1],"no methylation was detected for Re1A, Sp1, cyclin T1 and CDK9"
same,"in vitro methylation (3H-SAM, autoradiography)",[2],"no methylation was detected for Re1A, Sp1, cyclin T1 and CDK9"
same,"in vitro methylation (3H-SAM, autoradiography)",[3],histones H3 and H1 were weakly and Tat strongly methylated by SMYD5
same,LC-MS/MS of in vitro methylation products (non-radiolabeled SAM),[4],"This analysis identified a single site, trimethylation of K41, identified in two distinct peptides (not shown). No mono or dimethylation at Tat K41 was observed."
same,"in vitro methylation (3H-SAM, autoradiography)",[4],histones H3 and H1 were weakly and Tat strongly methylated by SMYD5
same,"in vitro methylation (3H-SAM, autoradiography)",[5],histones H3 and H1 were weakly and Tat strongly methylated by SMYD5
same,"in vitro methylation (3H-SAM, autoradiography)",[6],"no methylation was detected for Re1A, Sp1, cyclin T1 and CDK9"
same,"in vitro methylation (3H-SAM, autoradiography)",[7],"no methylation was detected for Re1A, Sp1, cyclin T1 and CDK9"
